Assay results published in patent US20050191294A1, “Compositions and methods of use of targeting peptides for diagnosis and therapy” (Board of Regents, The University of Texas System, priority 2003, published 2005).

Target: recombinant gst-fused prohibitin [GST: P08515]
Assay: phage binding to gst-prohibitin immobilized on microtiter plate, 10^9 TU, bound TU counted

Sequence of recombinant gst-fused prohibitin [GST: P08515] (P08515 whole entry, the tested form may be a part): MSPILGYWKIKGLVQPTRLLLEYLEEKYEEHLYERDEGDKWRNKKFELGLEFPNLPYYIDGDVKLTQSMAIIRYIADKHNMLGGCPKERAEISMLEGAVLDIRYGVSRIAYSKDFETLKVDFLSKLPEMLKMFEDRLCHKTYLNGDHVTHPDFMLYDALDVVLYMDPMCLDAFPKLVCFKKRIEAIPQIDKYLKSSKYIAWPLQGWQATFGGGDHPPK

Q: For CKGGRAKDC (peptide, not shown: large carriers, modifications not checked) [… (SEQ ID NO:4)-displaying phage], which fold binding relative to control insertless phage is on record?
A: 8 fold
